Assay results from patent US20060073159A1, “Human anti-cancer immunotherapy” (The Trustees of the University of Pennsylvania, priority 2004, published 2006).

Assays:
[1] = biological target: T1, HLA-A2 (Homo sapiens, UniProt P04439, D140Y/D185E/D98H/E176V/E277Q/G131W/G231S/I119V/I121R/I166T/I218V/L300P/L318F/N151K/N90K/P208A/P217A/Q86G/Q94H/R138H/R169H/T345S); assay: flow-based T2 binding assay (HLA-A2 binding and MHC complex stability); settings: 6 epitopes from each gene product compared, T2 cells
T1 construct: T2 cells are prepared to a concentration of 1×10^6 cells/mL; endogenous in cells; host or cells: T2 cells
Description: T2 cells are harvested as described elsewhere herin. T2 cells are wash three times in serum free media. T2 cells are prepared to a concentration of 1×10^6 cells/mL. 1 mL of T2 cells is added to each well of 24 well plate. B2M (1 mg/mL) is added to the mixture to give a final concentration of 2.5 ug/mL. Appropriate control or peptide at 50 ug/mL is added to each wll. The cells are incubated in an incubator at 37° C. For a positive control peptide, RT-POL vs flu or tax can be used.
Next day, cells are harvested and washed three times in serum-free RPMI. The supernatant is removed and the cells are resuspend in 800 ul of serum free IMDM. The cells are plated (400 ul of cells) to one well of a 48 well plate. […]
The fluorescence index (FI) can be calculated from the mean fluorescence intensity as follows: FI=(MFIpeptide/MFIno peptide)−1 The complex's half-life can be calculated using SigmaPlot regression analysis and the following formula: y=yo+a*e^bx t1/2=1/b*ln((y−yo)/a) with yo=Fimax/2 Conjugation of Monomers to Generate Tetramers
HLA-A2-restricted epitopes derived from HoxA9 and Meis I were predicted using two computational algorithms, and 6 epitopes from each gene product with the highest predicted likelihood of binding to HLA-A2 were evaluated empirically using a flow-based T2 assay, as described (Vonderheide et al., 1999, Immunity 10:673-679). […]

[2] = system: T2 cells loaded with cognate peptide; assay: lysis of peptide-loaded T2 cells by peptide-specific CTL; format: cell-based, human; settings: not negative control viral peptide
Description: The following assay is adapted from Fischer et al. (2002, J. Immunol. Methods 259:159-169). Briefly, T2 cells are labeled as follows. T2 cells are plated at 1×10^6/mL in serum-free RPMI-1640×1 mL in 24 well plate. 2.5 ug/mL B2M is added to the cells. 1 ug/mL peptide (Tax or Flu) is added to the mixture. The cells are incubate overnight at 37° C. in a CO2 incubator. The cells are then washed once in RPMI-1640 (serum free). The supernatant is removed; leaving about 25 ul supernatant on the pellet. The remaining cells in suspension are agitated to mix with the supernatant. 1 mL of diluent C is added to resuspend the cells.
Immediately prior to staining, 4×10)(−6)M PKH26 dye is prepared at RT (1:250 dilution of stock; 4 ul of 996 ul diluent C). 1 mL of PKH26 dye is immediately added to 1 mL of cells. The sample is immediatedly mixed by gentle pipetting. The sample is incubate at RT for about 2-5 minutes, with periodical swirling of the tube to insure mixing. The staining reaction is stopped by adding 2 mL of serum in a compatible protein solution. This solution is incubated for 1 minute to stop the staining reaction. The sample is then diluted with 4 mL of complete media (T cell media). The cells are washed two to three times with T cell media.
To assay for the T2 cells, targets at 2e5/mL in IMDM 10% huSerum is prepared. Effectors are prepared at 2×10^6/mL and 2×10^5/mL in IMDM 10% huSerum. […]

[3] = system: HoxA9+ and Meis1+ leukemia cell lines; assay: lysis of leukemia cell lines by peptide-specific CTL; format: cell-based, human; settings: antigen-dependent, MHC-restricted; HLA-A2-negative or antigen-negative leukemia cells not killed
Source text: To determine whether these peptides could trigger the expansion of specific CTL, CD8+ T cells from normal HLA-A2+ donors were stimulated in vitro with autologous peptide-loaded antigen presenting cells, using a system previously described (Vonderheide et al., 1999, Immunity 10:673-679). […] Moreover, both Hox-TLD and Mei-AIY specific CTL were able to lyse HoxA9+ and Meis1+leukemia cell lines in an antigen-dependent, MHC-restricted fashion.

[4] = biological target: T2, human HLA-A*0201 (human); assay: flow-based T2 assay (HLA-A2 stabilisation on peptide-pulsed T2 cells, anti-HLA-A2-FITC)
T2 construct: HLA-A2 on TAP-deficient T2 cells; Surface stabilisation by peptide was read with anti-HLA-A2-FITC by flow cytometry; also called HLA-A2; A2
Description: Next day, cells are harvested and washed three times in serum-free RPMI. The supernatant is removed and the cells are resuspend in 800 ul of serum free IMDM. The cells are plated (400 ul of cells) to one well of a 48 well plate. The cells are incubate for an additional 6 hours in an incubator at 37° C. The remaining cells are saved and place on ice for immediate analysis. The cells are stained for anti-HLA-A2-FITC and for IgG-FITC. The cells are anaylized on a flow cytometer.
HLA-A2-restricted epitopes derived from HoxA9 and Meis I were predicted using two computational algorithms, and 6 epitopes from each gene product with the highest predicted likelihood of binding to HLA-A2 were evaluated empirically using a flow-based T2 assay, as described (Vonderheide et al., 1999, Immunity 10:673-679). […] The same cells in normal HLA-A2+ donors were undetectable.

Row | Molecule | binding and MHC complex stability [1] | lysis of T2 cells loaded with cognate peptide by specific CTL [2] | lysis of HoxA9+ and Meis1+ leukemia cell lines by specific CTL [3] | binding result [4]
1 | Mei-AIY: epitope of the antigen Meis1, SEQ ID NO:11 (AIYGHPLFPL; human-derived peptide) | best binding and MHC complex stability | able to lyse T2 cells loaded with cognate peptide | able to lyse | 
2 | Hox-TLD: epitope of the antigen HOX-A9, SEQ ID NO:3 (TLDTHTLSL; human-derived peptide) | best binding and MHC complex stability | able to lyse T2 cells loaded with cognate peptide | able to lyse | 
3 | TLDTHTLSL [Hox-TLD] |  |  |  | binds
4 | AIYGHPLFPL [Mei-AIY] |  |  |  | binds
